Five molecules from article PMC5401905, “Regulation of Inducible Potassium Transporter KdpFABC by the KdpD/KdpE Two-Component System in Mycobacterium smegmatis” can be followed below.

Series [1] concerns the target T1, KdpE (Mycobacterium smegmatis) (UniProt A0R399).
T1 sequence: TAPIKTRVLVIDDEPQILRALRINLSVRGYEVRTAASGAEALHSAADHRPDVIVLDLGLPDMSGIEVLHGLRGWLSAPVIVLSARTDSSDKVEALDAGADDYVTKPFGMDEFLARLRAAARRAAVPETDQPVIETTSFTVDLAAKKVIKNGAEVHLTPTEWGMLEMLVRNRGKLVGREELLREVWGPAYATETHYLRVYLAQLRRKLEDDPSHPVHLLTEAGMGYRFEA
In words: EMSA. The settings on record: 10 mM Tris pH 7.5 (20 C), 100 mM KCl, 1 mM EDTA, 0.1 mM DTT, 5% glycerol, 0.010 mg/mL BSA, 0.5 mM Na2ATP; 25 C, 1 h; 6% native PAGE in 0.25x TBE. On the technique in general: A gel shift assay detects complexes by their altered migration in electrophoresis.

The target of series [2] is T1, KdpE (Mycobacterium smegmatis). In words: competition. To be noted: 10 mM Tris pH 7.5 (20 C), 100 mM KCl, 1 mM EDTA, 0.1 mM DTT, 5% glycerol, 0.010 mg/mL BSA, 0.5 mM Na2ATP; 25 C, 1 h; 6% native PAGE in 0.25x TBE.
Series [3] shares this target. In words: DNase I footprinting. The settings on record: 10 mM Tris pH 7.5 (20 C), 100 mM KCl, 1 mM EDTA, 0.1 mM DTT, 5% glycerol, 0.010 mg/mL BSA, 0.5 mM Na2ATP; 25 C, 1 h; 6% native PAGE in 0.25x TBE.
Another series concerns the target T2, KdpE (Mycobacterium smegmatis, UniProt A0R399 2-230).
T2 sequence: T1 sequence
In words: EMSA; 0.5 mM ATP; 10 mM Tris pH 7.5 (20 C), 100 mM KCl, 1 mM EDTA, 0.1 mM DTT, 5% glycerol, 0.010 mg/mL BSA, 0.5 mM Na2ATP; 25 C, 1 h; 6% native PAGE in 0.25x TBE. To be noted: protein: recombinant; tags: 6xHis (pET28a); chain copies: 2; blunt.

Turning to “CCCGAGGCGCCGGCGCCCGGCCGAGCAGGTGCGTCGGGTGTCGGCAGGCGCGGCAGCCCGCGGAGCAAGCAGGGACATGAGCTTCGTCGAGTGGGTCACCCCTCGAACATCCATCAACCGAGCCATGACGACGAGTGTCCTGGCGGAGTCTTGGCCGCTGCTGTACAAACCTTGACGCCGCACTGACAGTCCGTCGGGAACCGCCTGTGCGCCGGCTTCGAACAAACGGTGTCAAATACGGCCGCCGCACCGTAAAGAAACCATCAAGGCCGCGTTCGCGGTCCTGAACTGGGCAGATCC (double strand) [PkdpF 300-bp probe]”, the binding entry in series [1], in series [2] and in series [3] was “binds” in each case.

B1: FPC-18 (dsDNA)
DNA 1: AAGAAACCATCAAGGCCG
DNA 2: CGGCCTTGATGGTTTCTT
In the case of B1, in the series with KdpE, the binding result is “no binding”.

B2: FPC-28 (dsDNA)
DNA 1: CCGTAAAGAAACCATCAAGGCCGCGTTC
DNA 2: GAACGCGGCCTTGATGGTTTCTTTACGG
As to B2, the binding result in the series with KdpE was “binds”.

B3: FPC-33 (dsDNA)
DNA 1: ACCGTAAAGAAACCATCAAGGCCGCGTTCGCGG
DNA 2: CCGCGAACGCGGCCTTGATGGTTTCTTTACGGT
For the molecule B3, the binding result in the series with KdpE is reported as “binds”.

B4: FPC-22 (dsDNA)
DNA 1: CCGTAAAGAAACCATCAAGGCC
DNA 2: GGCCTTGATGGTTTCTTTACGG
As for B4, the binding result with KdpE is reported as “binds”.
